Target: T1, MBP-ORC1 A-A (human, UniProt Q13415 1-861, 235KRL237 to 235ARA237)
T1 sequence: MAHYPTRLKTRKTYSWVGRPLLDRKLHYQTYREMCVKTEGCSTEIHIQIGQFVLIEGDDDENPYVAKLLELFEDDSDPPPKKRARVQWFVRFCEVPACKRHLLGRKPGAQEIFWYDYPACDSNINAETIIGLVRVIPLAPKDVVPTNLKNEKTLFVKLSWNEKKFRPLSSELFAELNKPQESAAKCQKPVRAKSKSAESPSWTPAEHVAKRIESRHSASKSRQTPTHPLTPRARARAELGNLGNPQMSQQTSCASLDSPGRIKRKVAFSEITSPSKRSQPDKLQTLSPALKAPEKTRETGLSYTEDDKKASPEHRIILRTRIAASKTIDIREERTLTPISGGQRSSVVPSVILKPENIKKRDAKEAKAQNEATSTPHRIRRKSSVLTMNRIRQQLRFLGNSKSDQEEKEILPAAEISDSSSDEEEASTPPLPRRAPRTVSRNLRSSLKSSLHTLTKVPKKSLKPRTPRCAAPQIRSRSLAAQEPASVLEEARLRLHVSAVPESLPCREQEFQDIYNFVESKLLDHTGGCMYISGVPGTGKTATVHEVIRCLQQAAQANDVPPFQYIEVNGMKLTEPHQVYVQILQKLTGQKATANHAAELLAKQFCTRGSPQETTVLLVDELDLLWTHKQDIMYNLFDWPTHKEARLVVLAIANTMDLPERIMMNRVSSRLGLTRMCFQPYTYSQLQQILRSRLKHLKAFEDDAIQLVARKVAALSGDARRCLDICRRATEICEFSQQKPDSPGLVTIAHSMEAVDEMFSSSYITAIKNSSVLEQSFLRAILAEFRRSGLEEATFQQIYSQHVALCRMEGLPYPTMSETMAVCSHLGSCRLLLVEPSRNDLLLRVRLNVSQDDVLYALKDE
Test: pull-down

binding result: binds
B1: GST-CDC6 (natural protein)
chain: MPQTRSQAQATISFPKRKLSRALNKAKNSSDAKLEPTNVQTVTCSPRVKALPLSPRKRLGDDNLCNTPHLPPCSPPKQGKKENGPPHSHTLKGRRLVFDNQLTIKSPSKRELAKVHQNKILSSVRKSQEITTNSEQRCPLKKESACVRLFKQEGTCYQQAKLVLNTAVPDRLPAREREMDVIRNFLREHICGKKAGSLYLSGAPGTGKTACLSRILQDLKKELKGFKTIMLNCMSLRTAQAVFPAIAQEICQEEVSRPAGKDMMRKLEKHMTAEKGPMIVLVLDEMDQLDSKGQDVLYTLFEWPWLSNSHLVLIGIANTLDLTDRILPRLQAREKCKPQLLNFPPYTRNQIVTILQDRLNQVSRDQVLDNAAVQFCARKVSAVSGDVRKALDVCRRAIEIVESDVKSQTILKPLSECKSPSEPLIPKRVGLIHISQVISEVDGNRMTLSQEGAQDSFPLQQKILVCSLMLLIRQLKIKEVTLGKLYEAYSKVCRKQQVAAVDQSECLSLSGLLEARGILGLKRNKETRLTKVFFKIEEKEIEHALKDKALIGNILATGLP
